pKi: −log10 of the molar value. A value given as a limit tells only on which side of the number the result lay.

For assay [1], the target named is 50S ribosomal subunit of E. coli (E. coli) (UniProt P0A7L0). Briefly: stopped-flow Rayleigh light scattering of subunit association; naked 30S (0.25 µM final) mixed with 50S (0.25 µM final) preincubated with ObgE or ObgE-NG (0.5-20 µM in the mix); HEPES polymix buffer pH 7.5, 37°C; Ki from the midpoint of k obs against concentration.
Assay [2] shares this target.
For assay [3] the target is unchanged. Briefly: co-sedimentation; as a1, with 0.5 mM ppGpp.
The target is the same in assay [4]. The assay can be described thus: stopped-flow Rayleigh light scattering of subunit association; 30S-preIC (0.25 µM final; mRNA, fMet-tRNAfMet, IF1, IF2, GTP) mixed with 50S (0.25 µM final) preincubated with ObgE or ObgE-NG; HEPES polymix buffer pH 7.5, 37°C; Ki from the midpoint of k obs against concentration.

UniProt P0A7L0, sequence (P0A7L0 whole entry, looked up): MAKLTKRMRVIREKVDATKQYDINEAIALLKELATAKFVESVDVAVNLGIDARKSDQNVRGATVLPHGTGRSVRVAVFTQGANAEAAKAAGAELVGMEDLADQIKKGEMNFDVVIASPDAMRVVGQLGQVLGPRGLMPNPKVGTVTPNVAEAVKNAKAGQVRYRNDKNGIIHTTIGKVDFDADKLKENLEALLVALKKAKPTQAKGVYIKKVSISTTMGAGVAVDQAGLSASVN

Substance “30S ribosomal subunit of E. coli (naked 30S subunit) (complex)” yielded a k obs of subunit association (without ObgE) in assay [1] of 4 s⁻¹.
In assay [2], “ObgE (Obg protein in Escherichia coli), full-length, His-tagged (from UniProt P42641 1-390) (enzyme)” gave a GTP hydrolysis rate of ObgE (MESG assay, phosphate release) with increasing amounts of 50S subunits up to an equal amount; without 50S ∼0.0268 min^−1; stimulated about 120-fold of 3.15 min⁻¹. In assay [3], the fold occupancy on the 50S subunit against the apo state was > 5 fold. In addition, the values for the pKi in assay [4] and in assay [1] were 6.52 and 5.70, respectively.
Regarding “ObgE-NG (CTD deleted construct of ObgE, residues 1-340) (from UniProt P42641 1-340) (domain or fragment)”, the pKi in assay [4] was 6.00; in assay [1], 5.43.
With “mRNA programmed 30S-preinitiation complex (30S-preIC) (from UniProt P69222 1-72; P0A705 1-890)”, the k obs of subunit association (without ObgE) in assay [4] was 20 s⁻¹.
